This passage reports Kd results from patent US20230151091A1 (NEW YORK UNIVERSITY, published 2023).

What is called Kd is the free concentration of one partner at which half of the binding sites on the other are occupied at equilibrium, for simple one-to-one binding. The low end stands for higher affinity, the high end for lower affinity.

This test deals with T1, human MuSK (human, UniProt O15146 24-495).
T1 construct: Recombinant protein coated on ELISA plates (R&D Systems cat. 10189-MK) or on the Biacore chip; also called human muscle-specific tyrosine protein kinase; full length human MuSK
T1 sequence: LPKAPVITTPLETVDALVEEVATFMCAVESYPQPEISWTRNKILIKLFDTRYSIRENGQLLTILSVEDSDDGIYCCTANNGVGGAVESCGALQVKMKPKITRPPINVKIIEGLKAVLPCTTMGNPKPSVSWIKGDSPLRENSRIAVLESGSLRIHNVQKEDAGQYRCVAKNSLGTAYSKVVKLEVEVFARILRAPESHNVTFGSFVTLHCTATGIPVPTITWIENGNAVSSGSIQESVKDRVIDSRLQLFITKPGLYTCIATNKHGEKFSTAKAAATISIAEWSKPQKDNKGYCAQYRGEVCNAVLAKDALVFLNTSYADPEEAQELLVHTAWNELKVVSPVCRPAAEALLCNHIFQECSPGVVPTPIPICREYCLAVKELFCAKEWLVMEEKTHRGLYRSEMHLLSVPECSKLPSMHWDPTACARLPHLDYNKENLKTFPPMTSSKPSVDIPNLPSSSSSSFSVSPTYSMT
Description: Biacore, MuSK on chip (200RU), mAb dilution series. From the text:
For affinity determination, a CMS chip was coated with either human or mouse MuSK (200RU) and a dilution series of the antibodies (mAbs and Fabs) was applied in order to be able to calculate the affinity.
A general note: Surface plasmon resonance follows binding to a sensor surface in real time, without labels.

B1: 3B2 (antibody, V domains shown)
VH: ELQLVESGGGLVQPGGSLRLSCAASGFTFDDYGMSWVRQAPGKGLEWVSAIPWNGGSTYYKESVKGRFTISRDNAKKTLYLQMNSLKSEDTAVYYCAKRSGRIAFGALDAWGQGTLVTVSS
VL: QAVVTQEPSLSVSPGGTVTLTCGLSSGSVTSSNYPDWYQQTPGQAPRGLIYSTDSRHSGVPSRFSGSISGNKAALTITGAQSEDEADYYCGLYMYSGSKNYVFGGGTKLTVL
notes: human IgG1 with the LALA mutations (L234A, L235A); produced in HEK293 cells; also called 3B2 mAb; parental 3B2 Ab
The molecule B1 registered a Kd of 145 pM.
